Some results are limits rather than exact numbers.

The target in test [1] is KLB (beta-klotho) on KLB only expressing cells (UniProt Q86Z14). The test is described as follows: cell-based or functional assay.
The target of test [2] is KLB/FGFR4 on KLB/FGFR4 expressing cells (UniProt Q86Z14). The test is described as follows: cell-based or functional assay.
Sequence of KLB/FGFR4 on KLB/FGFR4 expressing cells (Q86Z14 whole entry, chain 1 of 2): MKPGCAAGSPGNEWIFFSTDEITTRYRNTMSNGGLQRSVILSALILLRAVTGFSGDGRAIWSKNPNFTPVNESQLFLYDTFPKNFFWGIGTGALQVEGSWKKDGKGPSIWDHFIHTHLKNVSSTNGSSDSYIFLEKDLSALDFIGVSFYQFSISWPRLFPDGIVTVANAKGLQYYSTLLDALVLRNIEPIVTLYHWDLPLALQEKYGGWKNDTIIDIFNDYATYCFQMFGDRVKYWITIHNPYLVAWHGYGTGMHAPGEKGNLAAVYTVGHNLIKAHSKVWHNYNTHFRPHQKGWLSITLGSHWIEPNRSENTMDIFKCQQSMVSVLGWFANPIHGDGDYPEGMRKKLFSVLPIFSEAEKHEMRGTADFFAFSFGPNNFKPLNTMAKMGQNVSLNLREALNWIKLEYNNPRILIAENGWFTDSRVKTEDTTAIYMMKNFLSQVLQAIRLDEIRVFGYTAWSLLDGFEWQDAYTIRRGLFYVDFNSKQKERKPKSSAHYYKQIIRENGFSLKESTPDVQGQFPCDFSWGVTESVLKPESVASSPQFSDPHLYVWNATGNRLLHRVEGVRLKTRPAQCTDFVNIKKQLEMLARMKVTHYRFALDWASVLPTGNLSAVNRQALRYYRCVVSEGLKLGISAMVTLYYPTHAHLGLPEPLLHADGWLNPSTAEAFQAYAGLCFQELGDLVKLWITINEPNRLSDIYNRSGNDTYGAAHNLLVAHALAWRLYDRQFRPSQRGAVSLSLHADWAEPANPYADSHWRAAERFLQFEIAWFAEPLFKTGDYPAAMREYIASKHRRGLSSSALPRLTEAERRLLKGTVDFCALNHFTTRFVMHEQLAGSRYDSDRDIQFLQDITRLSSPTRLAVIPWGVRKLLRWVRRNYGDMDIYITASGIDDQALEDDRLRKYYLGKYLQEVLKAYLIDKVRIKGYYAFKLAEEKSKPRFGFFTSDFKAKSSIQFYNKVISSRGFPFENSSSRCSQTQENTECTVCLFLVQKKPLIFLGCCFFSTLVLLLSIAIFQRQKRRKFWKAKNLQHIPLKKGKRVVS
Sequence of KLB/FGFR4 on KLB/FGFR4 expressing cells (P22455 22-802 limits assumed, chain 2 of 2, further chain): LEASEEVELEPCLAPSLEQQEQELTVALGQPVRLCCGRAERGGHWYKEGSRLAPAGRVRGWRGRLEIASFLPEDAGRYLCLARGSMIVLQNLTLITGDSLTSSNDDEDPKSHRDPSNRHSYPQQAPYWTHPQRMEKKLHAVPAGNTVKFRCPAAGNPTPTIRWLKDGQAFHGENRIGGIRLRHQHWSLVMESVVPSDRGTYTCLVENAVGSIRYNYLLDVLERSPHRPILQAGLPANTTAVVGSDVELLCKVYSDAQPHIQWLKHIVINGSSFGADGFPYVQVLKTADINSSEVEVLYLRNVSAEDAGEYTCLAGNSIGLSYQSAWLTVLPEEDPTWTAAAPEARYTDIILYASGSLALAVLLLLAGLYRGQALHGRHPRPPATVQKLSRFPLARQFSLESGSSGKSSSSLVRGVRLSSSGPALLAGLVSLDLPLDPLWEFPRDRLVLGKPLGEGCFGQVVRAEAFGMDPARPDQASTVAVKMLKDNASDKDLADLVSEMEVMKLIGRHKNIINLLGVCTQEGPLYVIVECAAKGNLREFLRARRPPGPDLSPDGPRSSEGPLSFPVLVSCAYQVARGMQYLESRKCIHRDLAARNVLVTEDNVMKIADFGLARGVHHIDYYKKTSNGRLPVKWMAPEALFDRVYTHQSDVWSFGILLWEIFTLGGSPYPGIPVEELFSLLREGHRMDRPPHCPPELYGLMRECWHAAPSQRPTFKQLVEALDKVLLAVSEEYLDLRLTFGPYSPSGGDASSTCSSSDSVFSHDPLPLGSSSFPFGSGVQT

Sequence of KLB (beta-klotho) on KLB only expressing cells (Q86Z14 whole entry): as the sequence (Q86Z14 whole entry, chain 1 of 2) above

In turn, “native FGF-21 (from UniProt Q9NSA1 29-209) (ligand)” gave a fold increase of pERK at 3000 nM in test [1] of 2 fold. Moreover, the fold increase in pERK at the highest concentration of 3000 nM in test [2] was less than 2 fold.
Regarding “Mutant FGF21-GalNAc-SA-PEG-20 kDa (BIO89-100) (from UniProt Q9NSA1 29-209) (ligand)”, the fold increase in pERK at the highest concentration of 3000 nM in test [2] was less than 2 fold.
Take “FGF-19 (from UniProt O95750 25-216) (ligand)”: in test [1], the fold increase of pERK at 3000 nM was determined as 2 fold.

The values are drawn from patent US11427623.
